Test system: Strep-msIHF (mycobacterial integration host factor) (Mycobacterium smegmatis mc2 155)
Test: BLI
Conditions: BLI: PBS with 50 mM Tris-HCl pH 7.5, 150 mM NaCl, 0.1 mg/ml BSA, 0.05% Tween-20, 30 C. EMSA: 50 mM Tris-HCl pH 8, 150 mM NaCl, 10 mM Mg acetate, 0.02% …

Substance	Kd [nM]
attB fragment	250
oriC fragment	270
